Data reported in US20230365705A1 (DYNAMICURE BIOTECHNOLOGY, published 2023).

T1: Human CD93 on cells (human CD93 expressing CHO cells; HUVEC, U937 and KG1a cells) (human, UniProt Q9NPY3 22-652)
T1 construct: whole, on cells; also called hCD93 expressing CHO cells; hCD93 CHO cells
T1 sequence (looked up): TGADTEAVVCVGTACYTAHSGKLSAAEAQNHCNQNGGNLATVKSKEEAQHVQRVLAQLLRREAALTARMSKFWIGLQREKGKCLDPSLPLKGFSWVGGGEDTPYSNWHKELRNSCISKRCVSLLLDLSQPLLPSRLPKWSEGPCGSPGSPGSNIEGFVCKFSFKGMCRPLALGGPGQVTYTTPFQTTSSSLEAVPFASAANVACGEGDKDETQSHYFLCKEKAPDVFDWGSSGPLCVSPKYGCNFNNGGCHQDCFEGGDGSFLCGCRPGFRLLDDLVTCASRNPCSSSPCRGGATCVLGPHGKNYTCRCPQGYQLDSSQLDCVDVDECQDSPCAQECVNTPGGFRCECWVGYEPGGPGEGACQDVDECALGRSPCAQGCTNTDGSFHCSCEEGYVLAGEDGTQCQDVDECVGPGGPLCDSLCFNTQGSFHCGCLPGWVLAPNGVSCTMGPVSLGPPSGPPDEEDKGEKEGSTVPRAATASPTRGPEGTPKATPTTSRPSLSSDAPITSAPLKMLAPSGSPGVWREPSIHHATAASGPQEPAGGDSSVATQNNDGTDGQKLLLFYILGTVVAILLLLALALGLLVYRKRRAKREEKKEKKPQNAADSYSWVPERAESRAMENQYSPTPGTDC

T2: Human CD93 recombinant protein (Sino Biological Inc, Catalog #12589-H08H) (human, UniProt Q9NPY3 22-580)
T2 construct: Biotinylated (EZ-LINK NHS-PEG4 biotin) in the BLI assays; also called hCD93; His-tagged human CD93
T2 sequence (looked up): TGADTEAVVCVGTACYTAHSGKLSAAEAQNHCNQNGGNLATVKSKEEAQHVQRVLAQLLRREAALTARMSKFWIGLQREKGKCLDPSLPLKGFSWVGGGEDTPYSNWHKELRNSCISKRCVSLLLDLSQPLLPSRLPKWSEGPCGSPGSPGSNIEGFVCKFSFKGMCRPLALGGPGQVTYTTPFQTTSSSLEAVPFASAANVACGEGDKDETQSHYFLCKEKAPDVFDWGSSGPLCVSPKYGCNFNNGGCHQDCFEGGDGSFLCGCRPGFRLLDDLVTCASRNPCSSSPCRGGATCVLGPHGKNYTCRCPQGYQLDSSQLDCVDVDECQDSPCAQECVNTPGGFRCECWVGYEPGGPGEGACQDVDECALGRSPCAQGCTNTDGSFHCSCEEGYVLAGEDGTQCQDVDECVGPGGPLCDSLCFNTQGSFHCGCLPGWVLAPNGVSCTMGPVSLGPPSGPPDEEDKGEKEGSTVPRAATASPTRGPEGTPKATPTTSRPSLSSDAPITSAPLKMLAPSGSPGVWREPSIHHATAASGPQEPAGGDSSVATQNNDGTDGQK


Assays:
[1] = target: T1, Human CD93 on cells (human CD93 …); assay: flow cytometry blocking assay, CHO-hCD93 cells; blocked ligand hMMRN2 495-674 at 0.1 ug/ml, APC anti-His
Procedure: (§1) Then the cells were incubated with hMMRN2₄₉₅₋₆₇₄ at 0.1 μg/ml. […] After washing with FACS buffer twice, the samples were analyzed, and data acquired in NovoCyte Flow. Recombinant his tagged hMMRN2₄₉₅₋₆₇₄ was produced internally in E. Coli following routine procedure.

[2] = target: T2, Human CD93 recombinant protein (Sino …); assay: BLI (Octet QKe), biotinylated human CD93 on streptavidin biosensors; antibody stored 4 weeks at 40 C
Procedure: (§2) The binding affinity of anti-CD93 antibodies was determined with bio-layer interferometry using Octet QKe (Fortebio). […] Human CD93 recombinant protein (Sino Biological Inc, Catalog #12589-H08H) was biotinylated using EZ-LINK NHS-PEG4 biotin (Thermo Fisher Scientific). Streptavidin biosensors (Fortebio) were used to load biotinylated CD93 protein (300 seconds in 5 μg/ml). Baseline was stabilized for 60 seconds in 1×kinetics buffer (Fortebio) before anti-CD93 antibodies, at a serial dilution, were allowed to associate for 300 seconds with captured protein. Then the sensors were dissociated in 1× kinetics buffer for 600 seconds. […] (FIG. 41).

[3] = target: T1, Human CD93 on cells (human CD93 …); assay: flow cytometry blocking assay, HUVEC cells; blocked ligand hIGFBP7-His 0.1 ug/ml; blocking activity runs from about 46 to about 72 % of control
Procedure: After washing with FACS buffer twice, the samples were analyzed and data acquired in NovoCyte Flow.

[4] = target: T2, Human CD93 recombinant protein (Sino …); assay: BLI (Octet QKe), biotinylated human CD93 on streptavidin biosensors; antibody stored 2 weeks at 40 C
Procedure: as §2

[5] = target: T1, Human CD93 on cells (human CD93 …); assay: flow cytometry blocking assay, CHO-hCD93 cells; blocked ligand hMMRN2 495-674 at 0.1 ug/ml; antibody stored 4 weeks at 40 C
Procedure: as §1

[6] = target: T1, Human CD93 on cells (human CD93 …); assay: flow cytometry blocking assay, CHO-hCD93 cells; blocked ligand hMMRN2 495-674 at 0.1 ug/ml; blocking activity is 0 up to about 10 ug/ml and appears only at the two highest points
Procedure: Then the cells were incubated with hMMRN2₄₉₅₋₆₇₄ at 0.1 μg/ml. […] Then the cells were washed with FACS buffer and incubated with APC-conjugated anti-His tag antibody at 1 μg/ml for 30 minutes at 4° C. After washing with FACS buffer twice, the samples were analyzed and data acquired in NovoCyte Flow. Recombinant his tagged […] was produced internally in Expi_HEK following routine procedure.

IC50 [1] [nM]	Kd [2] [nM]	koff [2] [s⁻¹]	kon [2] [M⁻¹ s⁻¹]	IC50 [3] [nM]	Kd [4] [nM]	koff [4] [s⁻¹]	kon [4] [M⁻¹ s⁻¹]	IC50 [5] [nM]	IC50 [6] [nM]	Binder
0.173	0.487	0.000386	793000	1	0.495	0.000356	720000	0.153		h7F3 (humanized 7F3, VH3+VL3) (antibody, human IgG1, V domains shown, also called humanized 7F3-hIgG1) VH: QVQLVQSGAEVKKPGASVKVSCKASGYTFTDYEMHWVRQAPGQGLEWMGGIDPETGDTAYNQNFKGRVTMTTDTSTSTAYMELRSLTSDDTAVYYCTNYGNLYYYAMDYWGQGTSVTVSS VL: EIVLTQSPSSLSASVGDRVTITCRASSSVSSSYLHWYQQKPGKAPKLLIYSTSNLAFGVPSRFSGSGSGTSYTFTISSLQPEDIATYYCQQYSGYPLTFGSGTKLEIK
									225	h16E4 (humanized 16E4, VH4+VL6) (antibody, V domains shown, Detected with anti-human IgG, so a human Fc) VH: QVQLVQSGAEVKKPGASVKVSCKASGYTFTSYWMHWVRQAPGQGLEWMGEIDPSASYTYYNQKFKGRVTMTRDKSSSTVYMELSSLTSEDSAVYYCARSVYYGNKYFDVWGAGTTVTVSS VL: DIQMTQSPSTLSASVGDRVTITCKASQSVDYAGDSYMNWYQQKPGKAPKLLIYAASNLESGVPSRFSGSGSGTEFTLTISSLQPDDFATYYCQQTNEDPRTFGGGTKLEIK
